Test results as given in patent EP0459978B1, “CLASS I MHC MODULATION OF SURFACE RECEPTOR ACTIVITY” (THE REGENTS OF THE UNIVERSITY OF CALIFORNIA, priority 1989, dated 1997).

Assay: Peptide depletion (degradation or adsorption) during the experimental period, by HPLC and 125I-labeled peptide
Type: physicochemical
Settings: HPLC and 125I-labeled peptide; concentrations above 0.1 )M

## dynorphin A: control peptide purchased from Peninsula Laboratories
  depletion (degradation or adsorption) during the experimental period: No significant depletion
